Assay results taken from paper PMC10362042.
Several values for one entry are separate records, joined by “and”; a condition that tells them apart may be missing. Identical values can stand only once. Like-named read-outs stand apart in the source and are kept apart here.

Key:
Assay in all cases: SPR
Rabbit ACE2 (rabbit) = target: Rabbit ACE2 (rabbit)
Goat ACE2 (goat) = target: Goat ACE2 (goat)
Sheep ACE2 (sheep) = target: Sheep ACE2 (sheep)
Dog ACE2 (dog) = target: Dog ACE2 (dog)
Pig ACE2 (pig) [1] = target: Pig ACE2 (pig)
Pig ACE2 (pig) [2] = target: Pig ACE2 (pig); remark: listed apart in the source

SARS-CoV-2 Omicron BA.1 RBD (residues 319-541) (from UniProt P0DTC2 319-541) (domain or fragment)
Kd (Rabbit ACE2 (rabbit)): 60 nM and 43.7 nM | Kd (Goat ACE2 (goat)): 174 nM and 180 nM (2×) and 188 nM | Kd (Sheep ACE2 (sheep)): 62 nM and 66.8 nM and 71.5 nM

SARS-CoV-2 Omicron BA.4/5 RBD (residues 319-541) (from UniProt P0DTC2 319-541) (domain or fragment)
Kd (Dog ACE2 (dog)): 211 nM and 146 nM and 186 nM | Kd (Goat ACE2 (goat)): 29.1 nM and 26.2 nM and 25.3 nM | Kd (Pig ACE2 (pig) [1]): 6.1 nM and 7.2 nM and 8 nM

SARS-CoV-2 Omicron BA.2 RBD (residues 319-541) (from UniProt P0DTC2 319-541) (domain or fragment)
Kd (Pig ACE2 (pig) [2]): 719 nM and 678 nM | Kd (Rabbit ACE2 (rabbit)): 76.3 nM and 53.8 nM and 59.3 nM | Kd (Goat ACE2 (goat)): 111 nM and 102 nM and 106 nM (2×) | Kd (Pig ACE2 (pig) [1]): 654 nM and 662 nM
